Residue numbers refer to the chain shown, from its start.

B1: Humabody VH 2.41 (VHH)
VHH: EVQLVESGGGLVKPGGSLRLSCAASGFTFSDYYMSWFRQAPGKGLEWVSYISGSGDIIDYADSVKGRFTISRDNAKNSLYLQMNNLRAEDTAVYHCAREDSRLTGTTDFDNWGQGTLVTVSS
notes: human single VH domain
B2: Humabody VH 2.46 (VHH)
VHH: B1 VHH with F37I, N85S, H95Y
notes: human single VH domain
B3: Humabody VH 2.51 (VHH)
VHH: B1 VHH with N85S, H95Y, S101P
notes: human single VH domain
B4: Humabody VH 2.42 (VHH)
VHH: B1 VHH with L20V, F37I
notes: human single VH domain
B5: Humabody VH 2.49 (VHH)
VHH: B1 VHH with F37I, N85S, H95Y, S101P
notes: human single VH domain
B6: Humabody VH 2.45 (VHH)
VHH: B1 VHH with H95Y
notes: human single VH domain
B7: Humabody VH 2.47 (VHH)
VHH: B1 VHH with N85S, H95Y
notes: human single VH domain
B8: Humabody VH 2.48 (VHH)
VHH: B1 VHH with F37I, N85S, H95Y, S101A
notes: human single VH domain
B9: Humabody VH 2.50 (VHH)
VHH: B1 VHH with N85S, H95Y, S101A
notes: human single VH domain
B10: 2.1-6GS-2.1 (VHH)
chain: EVQLVESGGGLVKPGGSLRVSCAASGFTFSDYYMSWFRQAPGKGLEWVSYISGSGDIIDYADSVKGRFTISRDNAKNSLYLQMNNLRAEDTAVYHCAREDSRLTGTTDFDNWGQGTLVTVSSGGGGSGGGGSGGGGSGGGGSGGGGSGGGGSEVQLVESGGGLVKPGGSLRVSCAASGFTFSDYYMSWFRQAPGKGLEWVSYISGSGDIIDYADSVKGRFTISRDNAKNSLYLQMNNLRAEDTAVYHCAREDSRLTGTTDFDNWGQGTLVTVSS
notes: bivalent tandem VH, monospecific for CD137; also called bivalent Humabody VH 2.1; not shown: His tag
B11: 4.1-6GS-1.78 (bispecific antibody)
chain: EVQLVESGGGVVQPGRSLRLSCAASGFSFSGYGMHWVRQAPGKGLEWVAYISYDGSNKYYADSVKGRFTISRDNSKNTLYLQMNSLRAEDTAVYYCAKDPAWGLRLGESSSYDFDIWGQGTMVTVSSGGGGSGGGGSGGGGSGGGGSGGGGSGGGGSQVQLVESGGGLVQPGGSLRLSCAATGFTLSNYWMNWVRQAPGKGLEWVANINQDGSERYYVDSVKGRFTISRDNAKNSLYLQMSSLRAEDTAVYFCARGGEGYGVDHYGLDVSGQGTTVTVSS
notes: built from its printed name (4.1, 6GS linker, 1.78); not shown: His tag
B12: 2.1-6GS-2.1-6GS-2.1 (VHH)
chain: EVQLVESGGGLVKPGGSLRVSCAASGFTFSDYYMSWFRQAPGKGLEWVSYISGSGDIIDYADSVKGRFTISRDNAKNSLYLQMNNLRAEDTAVYHCAREDSRLTGTTDFDNWGQGTLVTVSSGGGGSGGGGSGGGGSGGGGSGGGGSGGGGSEVQLVESGGGLVKPGGSLRVSCAASGFTFSDYYMSWFRQAPGKGLEWVSYISGSGDIIDYADSVKGRFTISRDNAKNSLYLQMNNLRAEDTAVYHCAREDSRLTGTTDFDNWGQGTLVTVSSGGGGSGGGGSGGGGSGGGGSGGGGSGGGGSEVQLVESGGGLVKPGGSLRVSCAASGFTFSDYYMSWFRQAPGKGLEWVSYISGSGDIIDYADSVKGRFTISRDNAKNSLYLQMNNLRAEDTAVYHCAREDSRLTGTTDFDNWGQGTLVTVSS
notes: trivalent tandem VH, monospecific for CD137; also called trivalent Humabody VH 2.1; not shown: His tag
B13: Humabody VH 1.90 (VHH)
VHH: EVQLVESGGGLVQPGGSLRLSCAASGFTFSSHWMTWVRQAPGKGLEWVAHIKEDGSEKYYEDSVEGRFTVSRDNAKNSVYLQMNSLRAEDTAVYYCARGGDGYSDSHFGVDVWGQGTTVTVSS
notes: human single VH domain
B14: Humabody VH 1.94 (VHH)
VHH: B13 VHH with V37F, V79L
notes: human single VH domain
B15: Humabody VH 1.97 (VHH)
VHH: B13 VHH with G55E, E61V, E65K, V70I, V79L, D101V, D105I
notes: human single VH domain
B16: Humabody VH 1.99 (VHH)
VHH: B13 VHH with V37F, G55E, E61V, E65K, V70I, V79L
notes: human single VH domain
B17: Humabody VH 1.104 (VHH)
VHH: B13 VHH with V37F, E61V, E65K, V70I, V79L, D101V
notes: human single VH domain
B18: Humabody VH 1.100 (VHH)
VHH: B13 VHH with V37F, G55E, E61V, E65K, V70I, V79L, D105I
notes: human single VH domain
B19: Humabody VH 1.105 (VHH)
VHH: B13 VHH with V37F, G55E, E61V, E65K, V70I, V79L, D101V, D105I
notes: human single VH domain
B20: Humabody VH 1.103 (VHH)
VHH: B13 VHH with V37F, E61V, E65K, V70I, V79L, D101E
notes: human single VH domain
B21: Humabody VH 1.92 (VHH)
VHH: B13 VHH with V37F, E65K
notes: human single VH domain
B22: Humabody VH 1.96 (VHH)
VHH: B13 VHH with V37F, E61V, E65K, V70I, V79L
notes: human single VH domain
B23: Humabody VH 1.91 (VHH)
VHH: B13 VHH with V37F, E61V, E65K
notes: human single VH domain
B24: Humabody VH 1.93 (VHH)
VHH: B13 VHH with V37F, V70I
notes: human single VH domain
B25: Humabody VH 1.95 (VHH)
VHH: B13 VHH with E61V, E65K, V70I, V79L
notes: human single VH domain
B26: Humabody VH 1.102 (VHH)
VHH: B13 VHH with V37F, D54E, E61V, E65K, V70I, V79L
notes: human single VH domain
B27: Humabody VH 1.98 (VHH)
VHH: B13 VHH with G55E, E61V, E65K, V70I, V79L, D101E, D105I
notes: human single VH domain
B28: Humabody VH 1.106 (VHH)
VHH: B13 VHH with V37F, G55E, E61V, E65K, V70I, V79L, D101E, D105I
notes: human single VH domain
B29: Humabody VH 1.101 (VHH)
VHH: B13 VHH with V37F, D54G, E61V, E65K, V70I, V79L
notes: human single VH domain
B30: 1.1-6GS-1.1-6GS-1.1 (VHH)
chain: EVQLVESGGGLVQPGGSLRLSCAASGFTFSSHWMTWFRQAPGKGLEWVAHIKEDGSEKYYEDSVEGRFTVSRDNAKNSVYLQMNSLRAEDTAVYYCARGGDGYSDSHFGVDVWGQGTTVTVSSGGGGSGGGGSGGGGSGGGGSGGGGSGGGGSEVQLVESGGGLVQPGGSLRLSCAASGFTFSSHWMTWFRQAPGKGLEWVAHIKEDGSEKYYEDSVEGRFTVSRDNAKNSVYLQMNSLRAEDTAVYYCARGGDGYSDSHFGVDVWGQGTTVTVSSGGGGSGGGGSGGGGSGGGGSGGGGSGGGGSEVQLVESGGGLVQPGGSLRLSCAASGFTFSSHWMTWFRQAPGKGLEWVAHIKEDGSEKYYEDSVEGRFTVSRDNAKNSVYLQMNSLRAEDTAVYYCARGGDGYSDSHFGVDVWGQGTTVTVSS
notes: trivalent tandem VH, monospecific for CD137; also called trivalent Humabody VH 1.1; not shown: His tag
B31: 1.1-6GS-1.1 (VHH)
chain: EVQLVESGGGLVQPGGSLRLSCAASGFTFSSHWMTWFRQAPGKGLEWVAHIKEDGSEKYYEDSVEGRFTVSRDNAKNSVYLQMNSLRAEDTAVYYCARGGDGYSDSHFGVDVWGQGTTVTVSSGGGGSGGGGSGGGGSGGGGSGGGGSGGGGSEVQLVESGGGLVQPGGSLRLSCAASGFTFSSHWMTWFRQAPGKGLEWVAHIKEDGSEKYYEDSVEGRFTVSRDNAKNSVYLQMNSLRAEDTAVYYCARGGDGYSDSHFGVDVWGQGTTVTVSS
notes: bivalent tandem VH, monospecific for CD137; also called bivalent Humabody VH 1.1; not shown: His tag
B32: Humabody VH 1.107 (VHH)
VHH: EVQLVESGGGLVQPGGSLRLSCAASGFTLSNYWMNWVRQAPGKGLEWVANINQDGSERYYVDSVKGRFTISRDNAKNSLYLQMSSLRAEDTAVYFCARGGEGYGVDHYGLDVSGQGTTVTVSS
notes: human single VH domain
B33: Humabody VH 1.110 (VHH)
VHH: B32 VHH with S84N
notes: human single VH domain
B34: Humabody VH 1.111 (VHH)
VHH: B32 VHH with F95Y
notes: human single VH domain
B35: Humabody VH 1.114 (VHH)
VHH: B32 VHH with G55E, S84N, F95Y
notes: human single VH domain
B36: Humabody VH 1.108 (VHH)
VHH: B32 VHH with S25T, S84N
notes: human single VH domain
B37: Humabody VH 1.109 (VHH)
VHH: B32 VHH with S25T, F95Y
notes: human single VH domain
B38: Humabody VH 1.112 (VHH)
VHH: B32 VHH with S25T, S84N, F95Y
notes: human single VH domain

The target of this assay is T1, human CD137 expressed on the surface of CHO cells (human, UniProt Q07011 24-255).
T1 construct: Also used for the Jurkat reporter cells that express human CD137 (functional rows); also called CHO human CD137 cells; CHO huCD137
T1 sequence (Q07011 24-255 limits assumed): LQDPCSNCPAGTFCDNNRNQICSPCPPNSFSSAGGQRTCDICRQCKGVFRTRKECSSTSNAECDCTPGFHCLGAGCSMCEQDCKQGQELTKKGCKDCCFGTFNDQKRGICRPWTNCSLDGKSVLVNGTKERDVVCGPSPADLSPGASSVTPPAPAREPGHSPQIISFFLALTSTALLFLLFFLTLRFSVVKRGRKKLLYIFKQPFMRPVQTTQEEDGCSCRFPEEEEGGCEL
The assay is described as follows: FMAT ligand inhibition, CD137 Ligand on CHO human CD137 cells. As to the method: In parallel to the binding assay, periplasmic extracts were tested for their ability to inhibit the interaction of human CD137 ligand protein with CHO human CD137 cells in an FMAT format. Total binding controls containing diluted periplasmic extract sample buffer and non-specific binding controls containing excess non-Fc tagged competitor were set up on each plate for data normalisation. Fluorescence signal was measured using the TTP Mirrorball and the FL2 median mean fluorescence intensity of gated used for the data normalisation. The data was expressed as a % of the total binding control (% control) after subtraction of the background signal determined from the non-specific binding control wells.
The ability of purified Humabody VH to inhibit the binding of CD137 Ligand to CHO human CD137 cells was measured in the FMAT ligand inhibition assay essentially as described in Example 6. VH inhibited the binding of human CD137 Ligand to human CD137.
Turning to B1, the IC50 was 16 nM.

As for B2, it took 78 nM to reach half-maximal inhibition (IC50).

Take B3: inhibition was half-maximal at 27 nM (IC50). This IC50 lies about 2.9-fold lower than the previous one.

The molecule B4 returned an IC50 of 200 nM. This IC50 lies about 7.4-fold higher than the previous one.

Consider B5, for which the midpoint of inhibition, the IC50, lay at 42 nM.

Molecule B6 showed an IC50 of 5.3 nM.

In turn, B7 showed an IC50 of 8.8 nM. This IC50 is about 1.7-fold higher than that of the molecule before.

As to B8, the IC50 was 86 nM.

The molecule B9 displayed an IC50 of 14 nM.

Consider B10, for which the IC50 was 0.43 nM.

In turn, B11 showed a half-inhibitory concentration (IC50) of 3.7 nM.

On to B12, for which the IC50 was found to be 0.42 nM. This IC50 lies about 8.8-fold lower than the previous one.

Regarding B13, the IC50 worked out at 7.8 nM.

Molecule B14 came in with an IC50 of 0.8 nM.

For the molecule B15, inhibition was half-maximal at 3.8 nM (IC50).

The molecule B16 came in with an IC50 of 1.5 nM.

On to B17, for which the IC50 was 1.1 nM.

On to B18, for which half-maximal inhibition (IC50) was put at 1.4 nM. The IC50 values of the last two molecules are within 1.5-fold of each other.

The molecule B19 registered an IC50 of 2.8 nM. Compared with the last molecule, the IC50 is about 2-fold higher.

B20 yielded an IC50 of 1.3 nM.

Take B21: the IC50 is 2.9 nM.

The molecule B22 had an IC50 of 2.7 nM. This IC50 and that of the molecule before are within 1.5-fold of each other.

In turn, B23 showed an IC50 of 1.9 nM.

B24 displayed a half-maximal inhibitory concentration (IC50) of 0.7 nM.

As for B25, the IC50 was found to be 24 nM. This IC50 lies about 34-fold higher than the previous one.

Consider B26, for which the midpoint of inhibition, the IC50, lay at 1.7 nM. This IC50 is about 14-fold lower than that of the molecule before.

In turn, B27 yielded an IC50 of 4.7 nM. Against the preceding molecule, the IC50 is about 2.8-fold higher.

With B28, half-maximal inhibition (IC50) required 2.1 nM. Against the preceding molecule, the IC50 is about 2.2-fold lower.

For B29, half-maximal inhibition (IC50) required 7.9 nM.

Regarding B30, the IC50 was 0.2 nM.

On to B31, for which half-maximal inhibition (IC50) required 0.28 nM.

For the molecule B32, the IC50 is 0.55 nM.

Take B33: the IC50 amounted to 0.81 nM.

With B34, the half-inhibitory concentration (IC50) came out at 0.75 nM. This IC50 and that of the molecule before are within 1.5-fold of each other.

For B35, half-maximal inhibition (IC50) required 0.27 nM.

As to B36, the IC50 worked out at 0.5 nM.

In the case of B37, the IC50 is 0.9 nM.

Turning to B38, the IC50 was 0.47 nM.

In general, IC50 refers to the concentration that gives 50% inhibition. A low value points to greater potency.

The values are drawn from patent US20200362047A1 (CRESCENDO BIOLOGICS, published 2020).
